We go through 142 substances from the supplement of paper PMC12042874.

± gives the uncertainty stated by the source.

The series in a line: amyloid nucleation score (Sup35N fusion, yeast selection) (log enrichment); library NNK1; higher = more nucleation; inactive = no reads after selection. The method, boiled down: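 Sup35N was fused to peptides of 20 random codons and expressed in psi-negative yeast, which were induced with 100 μM copper sulfate for 24 hours and then grown on medium lacking adenine and uracil for 7 days at 30°C. Plasmid inserts from input and output were sequenced on Illumina. The nucleation score is the DiMSum log enrichment of output over input reads, centred on the mode score of non-aggregating sequences. Sequences with under 100 input reads were left out, and random libraries had three technical output replicates.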
For the substance DGYFQFKFYCTEMGMLFCFF, the amyloid nucleation score was -1.24 ± 0.56.

Substance YIGVRCG returned an amyloid nucleation score of 0.026 ± 0.51.

As for AFFPGNFWACGSFDFLWYWL, the amyloid nucleation score came to 3.38 ± 0.083.

Turning to GICCYNFGRCKMRASPGLCG, the amyloid nucleation score was -0.999 ± 1.3.

QCSCSKWLAIRDWDGSSKMK came in with an amyloid nucleation score of 0.082 ± 1.6.

In the case of KFNDDRNGIATLQRHHIAGF, the amyloid nucleation score is -0.969 ± 0.71.

In turn, KVYYYKPLIRNPTSFLITIL yielded an amyloid nucleation score of 0.817 ± 0.47.

On to MIHVFLGETYLVIFAVNFST, for which the amyloid nucleation score entry is “inactive”.

Take FKLAIVSIFCINSWYNESLR: the amyloid nucleation score turned out to be 5.866 ± 0.049.

Turning to HCVLRFCNPG, the amyloid nucleation score result is “inactive”.

As to VVADVAPR, the amyloid nucleation score is -0.14 ± 0.34.

For DSRRGYPMMSMMWW, the amyloid nucleation score was -0.354 ± 0.39.

For the substance SDGASPFRWCFHSLRMVSAR, the amyloid nucleation score was -0.647 ± 1.1.

Turning to RISNRCSCSCNFDQGGVRQP, the amyloid nucleation score worked out at 0.394 ± 1.1.

Take NECSGGLQKLLNRTTNSDLW: the amyloid nucleation score is 0.185 ± 0.33.

Turning to CFKGF, the amyloid nucleation score was 0.946 ± 0.49.

Regarding FRSLFYVFHYLECFYL, the amyloid nucleation score was 3.52 ± 0.12.

The substance VYMGFVCEIVVNKEKRVGTF had an amyloid nucleation score of 0.008 ± 0.84.

The substance KNDDTRFR had an amyloid nucleation score of 0.358 ± 0.31.

As to LNRRMNRCCTWLNMCADFFA, the amyloid nucleation score is 0.865 ± 0.75.

YVCKIYFHDFDRNMGILEDH returned an amyloid nucleation score of 1.13 ± 0.85.

With TGRSTSTG, the amyloid nucleation score entry was “inactive”.

In turn, GRTYDDYGHVIYRSWLPSLH displayed an amyloid nucleation score of -0.274 ± 1.4.

VRRQRKVVLPTLMGNASGRP came in with an amyloid nucleation score of -0.183 ± 0.43.

In turn, SILKIALTH came in with an amyloid nucleation score of -1.71 ± 1.4.

VNLFVLYPIYLFGSCSHNLM yielded an amyloid nucleation score of 7.373 ± 0.053.

On to FFMLGSSY, for which the amyloid nucleation score result is “inactive”.

In turn, QKCIVLVMLLGWVFGMPVIG displayed an amyloid nucleation score of 0.129 ± 0.65.

DIKCLLR yielded an amyloid nucleation score of 0.238 ± 0.36.

ELLEILFCSTIVERKNHRRP registered an amyloid nucleation score of 2.11 ± 0.11.

For LSGWHSNLAGRPFPNEMDDG, the amyloid nucleation score came to 0.284 ± 0.3.

Turning to LGNNPTKHC, the amyloid nucleation score was -0.171 ± 0.51.

Substance LRGFESTRETVLGSMQQWCL returned an amyloid nucleation score of 1.03 ± 0.56.

As for RIWDCRYCKG, the amyloid nucleation score is -0.184 ± 0.29.

The substance ELLFFYYMSSNCFVFISCSQ gave an amyloid nucleation score of 1.59 ± 0.38.

For ACNCHMWV, the amyloid nucleation score is 1.31 ± 0.59.

The substance QVLDTGVVTDWSVIPFGRSY yielded an amyloid nucleation score of 0.483 ± 0.65.

With RLKLTGFMGLSILERVTLCS, the amyloid nucleation score was -0.396 ± 0.52.

DATTTLFL gave an amyloid nucleation score of -0.281 ± 0.77.

In turn, GTTDIFFLLILFFQVVN returned an amyloid nucleation score of 1.14 ± 0.73.

MGHTGYFQCKVATWCEGE displayed an amyloid nucleation score of 0.792 ± 0.92.

Substance QAVGSI returned an amyloid nucleation score of 0.031 ± 0.33.

NGRLMVGMLHV registered an amyloid nucleation score of 0.719 ± 0.56.

For CCFNYKSPWSMWFNLRLSNP, the amyloid nucleation score was 5.06 ± 0.071.

Turning to FVADGLAPFLPMTVPLVGIK, the amyloid nucleation score was -1.06 ± 2.4.

The substance IFSIGW returned an amyloid nucleation score of 0.816 ± 0.45.

In turn, FRVNCVAWDASGTYTYGR yielded an amyloid nucleation score of 0.525 ± 0.4.

Substance RRNHNSRVVINVLMHVRCSI registered an amyloid nucleation score of 1.95 ± 0.1.

In turn, KEWFYYLVDELCGGLCNPVR gave an amyloid nucleation score of 0.39 ± 1.2.

With DPTTPYDISGIWLRLEVRAD, the amyloid nucleation score is -0.175 ± 0.46.

Regarding YASLNYLLQGRVRA, the amyloid nucleation score entry was “inactive”.

The substance YYLIFHFDYHLVIYLW yielded an amyloid nucleation score of 0.707 ± 0.41.

ADDGAVLCRCEAGGTSWSVC: the amyloid nucleation score result was “inactive”.

In the case of KSTSQSYVIFFAQCFKYTTV, the amyloid nucleation score was -0.592 ± 0.31.

HYVVVKRRPMDMSGLVGWDA displayed an amyloid nucleation score of 0.036 ± 0.43.

The substance TLQLICYY gave an amyloid nucleation score of 3.29 ± 0.14.

TVRGGLY had an amyloid nucleation score of -1.04 ± 0.62.

The substance HHSRIFICDLRWSSTVRHCK returned an amyloid nucleation score of 1.39 ± 0.16.

Regarding TASIWNSRFFHNAGSLSGPF, the amyloid nucleation score is -0.3 ± 1.1.

LLNSFPSNCQVKDMELQGME gave an amyloid nucleation score of -0.176 ± 0.93.

As to IKRLFWDWLGDRDLGRMSTP, the amyloid nucleation score entry is “inactive”.

As for GILKCAYKT, the amyloid nucleation score was 0.664 ± 0.66.

Substance TRLLRVGRSNFSLNEHSDRI registered an amyloid nucleation score of -0.376 ± 0.9.

Substance GKFVFWWVRSVYDQMAVPGM returned an amyloid nucleation score of -0.546 ± 1.1.

Consider LVIPVDRDANGLCYR, for which the amyloid nucleation score worked out at 0.46 ± 0.6.

GEYLRLSIWGLDKDNKGVQ had an amyloid nucleation score of -0.073 ± 0.42.

The substance IKSEAWICCTSLYMNQGDRS had an amyloid nucleation score of 8.507 ± 0.065.

For RSCMRPFIGIMSSSPQIDKA, the amyloid nucleation score was -0.53 ± 0.77.

RIVKSGGFNR displayed an amyloid nucleation score of -0.089 ± 0.39.

As to YRFWEI, the amyloid nucleation score is -0.25 ± 0.35.

The substance KLDCMVDDICGTSGTVFLCL came in with an amyloid nucleation score of 4.85 ± 0.061.

SVLVLSRYFWNKLMRRWLVA: the amyloid nucleation score is -0.002 ± 1.2.

SCIWIWICNHSMFGMETGLG displayed an amyloid nucleation score of 4.12 ± 0.1.

As to GMFNLLH, the amyloid nucleation score entry is “inactive”.

The substance CWTSFYDC registered an amyloid nucleation score of 0.448 ± 0.49.

Substance VYLSRHTNRG had an amyloid nucleation score of 1.53 ± 0.43.

In turn, FTGCGLSPMGT yielded an amyloid nucleation score of 1.05 ± 0.73.

VGDVTGF: the amyloid nucleation score is 0.154 ± 0.95.

As for RLFVVEELESWGCFNWASIM, the amyloid nucleation score was -1.7 ± 2.4.

YAPLDDSMKLCHERGESLCM had an amyloid nucleation score of 0.186 ± 0.83.

Substance AGSGRGRGGCTSNRSDYSSG registered an amyloid nucleation score of -0.849 ± 1.

Take VNCGRMSAGCREVGWVDGES: the amyloid nucleation score was -0.316 ± 0.89.

In turn, GPPLWADNKVVLIR displayed an amyloid nucleation score of -0.878 ± 0.94.

Consider HFCHFVGLNPVQKRRVVPWG, for which the amyloid nucleation score result is “inactive”.

Regarding SRMGPGNYWANGKSFAARPP, the amyloid nucleation score is -0.491 ± 1.4.

In the case of KAAGMGSCSYTMVNYTPDAG, the amyloid nucleation score was found to be 1.39 ± 0.23.

As to LSGFLSYYLCKPKA, the amyloid nucleation score was -0.887 ± 0.38.

In turn, RSNCDFLSNNYGFLFGFLSQ displayed an amyloid nucleation score of 0.525 ± 0.44.

On to GSNIVSEYERLGRIMSV, for which the amyloid nucleation score was -0.509 ± 1.2.

On to MNIVSTRS, for which the amyloid nucleation score came to 0.231 ± 0.22.

In turn, GGTCVRQFMVLDTHSHADEC gave an amyloid nucleation score of 0.66 ± 0.56.

In turn, NDQVNVNFS registered an amyloid nucleation score of 0.338 ± 0.22.

For the substance KSSSV, the amyloid nucleation score is -0.352 ± 0.6.

HLVDFMDE yielded an amyloid nucleation score of 0.105 ± 0.3.

ILDHT came in with an amyloid nucleation score of 0.267 ± 0.33.

Take SEGWHGPGARVCLVFKNSRV: the amyloid nucleation score worked out at 0.286 ± 0.61.

For SECSINRWF, the amyloid nucleation score was determined as 0.965 ± 0.76.

In turn, MKGARFARS came in with an amyloid nucleation score of 0.91 ± 0.8.

In turn, EFTGDRQSYFCLQYSCTSLR had an amyloid nucleation score of -0.096 ± 1.7.

Regarding QWLAVVVIKVGLTWQYRFGG, the amyloid nucleation score worked out at 0.198 ± 0.91.

AAPRWSYEAASANAMLFVIL displayed an amyloid nucleation score of 2.89 ± 0.25.

As to IVHIHGLQAANLAASWSANL, the amyloid nucleation score was determined as 2.68 ± 0.18.

With FVCYSLNSSSFMIPYWILLK, the amyloid nucleation score was -0.293 ± 0.46.

The substance VVCQVNIHLNGVCLHRCLEE had an amyloid nucleation score of 6.862 ± 0.059.

On to MRPVSLYGFIFCCAFQGLWF, for which the amyloid nucleation score stood at 4.99 ± 0.07.

MKYKSWTSGSGSSVSRRMKL yielded an amyloid nucleation score of 0.028 ± 0.72.

As for VGWFFMYVPSSSAVFSKFLN, the amyloid nucleation score entry is “inactive”.

Take VDNDLGQLPGMW: the amyloid nucleation score was -0.561 ± 1.7.

For LPWPRNRFCTLIDEIHTPVY, the amyloid nucleation score was -0.167 ± 0.57.

With TYTCPVGNWVRMEGDLYFLA, the amyloid nucleation score is -0.847 ± 1.3.

The substance DKWRVRCCRFWLT came in with an amyloid nucleation score of 0.191 ± 0.29.

On to MFKNRGG, for which the amyloid nucleation score came out at 0.057 ± 0.36.

On to FAVSRVEMNLGL, for which the amyloid nucleation score is -0.117 ± 0.34.

For the substance CHCNL, the amyloid nucleation score worked out at 1.81 ± 0.38.

In turn, LLLLIN yielded an amyloid nucleation score of -0.663 ± 1.7.

With FHSLRLRLMRNYG, the amyloid nucleation score was -0.31 ± 1.4.

For ILVPLNQGEIWRNKIRYWI, the amyloid nucleation score came to 0.019 ± 0.4.

For MRLSNYFTGRDWGF, the amyloid nucleation score was -0.046 ± 0.43.

Consider AFLMMSTVAPTLWMIMPSYS, for which the amyloid nucleation score turned out to be 0.446 ± 0.48.

Regarding YVWAAIGVRLYSRHK, the amyloid nucleation score is -0.002 ± 1.4.

Consider FWTKSGSEEIITMVSTVRWR, for which the amyloid nucleation score was -0.749 ± 1.1.

Substance AWMSRIVNNPGSNTFSRQWL gave an amyloid nucleation score of -0.284 ± 0.71.

NSTPLADRCSVGMLPALKAD returned an amyloid nucleation score of -0.351 ± 0.63.

Consider SVLNSDCNCGIKSWFTDIIM, for which the amyloid nucleation score worked out at 1.96 ± 0.4.

As for TTSYHTNGRAVRIVYPFANS, the amyloid nucleation score is -0.096 ± 0.6.

In the case of SQSIAVCMVKCNCDCVHIGE, the amyloid nucleation score turned out to be 6.126 ± 0.05.

As to EVYVRRRVSIQKEGVLHAQK, the amyloid nucleation score was determined as 0.907 ± 0.97.

As to PSIEEEFSWVPAVFFFTWDM, the amyloid nucleation score was -0.706 ± 1.2.

In turn, CIRMVRGSTGSTVNMSSRCS registered an amyloid nucleation score of 0.347 ± 0.27.

On to RGDLSYYCRSNN, for which the amyloid nucleation score is -0.5 ± 1.4.

As for HLNNSLLELVNCRKYSIKGC, the amyloid nucleation score was found to be 0.088 ± 0.35.

Regarding VGNMRYL, the amyloid nucleation score is -0.332 ± 0.5.

In the case of RVDPLV, the amyloid nucleation score entry was “inactive”.

On to NLKADRFDHGSPEVVSLSFI, for which the amyloid nucleation score is -0.027 ± 0.98.

QRMLDTLH: the amyloid nucleation score is -0.134 ± 1.7.

With FRHPMTDDDTPWKAARFVE, the amyloid nucleation score is -1.6 ± 2.4.

Regarding MRNYNLAWRHSSYCTIRSNA, the amyloid nucleation score is 0.51 ± 0.84.

Consider EMSINLRNL, for which the amyloid nucleation score was determined as 0.558 ± 0.16.

DIDFLLNLCESNLIFANM had an amyloid nucleation score of -0.887 ± 0.87.

As to WSNPPITCSSVGINHHVSVV, the amyloid nucleation score was -0.171 ± 0.33.

As to KRGNPMTHAFLWPVMSYVFR, the amyloid nucleation score was 0.295 ± 0.97.

KFVYVVVMSMARACRNVPGH had an amyloid nucleation score of 0.272 ± 0.39.
